B1: KIF9: human host interactor protein, Gene ID 64147, expressed from transfected ORF vector (protein)
chain: MGTRKKVHAFVRVKPTDDFAHEMIRYGDDKRSIDIHLKKDIRRGVVNNQQTDWSFKLDGVLHDASQDLVYETVAKDVVSQALDGYNGTIMCYGQTGAGKTYTMMGATENYKHRGILPRALQQVFRMIEERPTHAITVRVSYLEIYNESLFDLLSTLPYVGPSVTPMTIVENPQGVFIKGLSVHLTSQEEDAFSLLFEGETNRIIASHTMNKNSSRSHCIFTIYLEAHSRTLSEEKYITSKINLVDLAGSERLGKSGSEGQVLKEATYINKSLSFLEQAIIALGDQKRDHIPFRQCKLTHALKDSLGGNCNMVLVTNIYGEAAQLEETLSSLRFASRMKLVTTEPAINEKYDAERMVKNLEKELALLKQELAIHDSLTNRTFVTYDPMDEIQIAEINSQVRRYLEGTLDEIDIISLRQIKEVFNQFRVVLSQQEQEVESTLRRKYTLIDRNDFAAISAIQKAGLVDVDGHLVGEPEGQNFGLGVAPFSTKPGKKAKSKKTFKEPLSSLARKEGASSPVNGKDLDYVSTSKTQLVPSSKDGDVKDMLSRDRETSSIEPLPSDSPKEELRPIRPDTPPSKPVAFEEFKNEQGSEINRIFKENKSILNERRKRASETTQHINAIKREIDVTKEALNFQKSLREKQGKYENKGLMIIDEEEFLLILKLKDLKKQYRSEYQDLRDLRAEIQYCQHLVDQCRHRLLMEFDIWYNESFVIPEDMQMALKPGGSIRPGMVPVNRIVSLGEDDQDKFSQLQQRVLPEGPDSISFYNAKVKIEQKHNYLKTMMGLQQAHRK
B2: KLC3: human host interactor protein, Gene ID 147700, expressed from transfected ORF vector (protein)
chain: MSVQVAAPGSAGLGPERLSPEELVRQTRQVVQGLEALRAEHHGLAGHLAEALAGQGPAAGLEMLEEKQQVVSHSLEAIELGLGEAQVLLALSAHVGALEAEKQRLRSQARRLAQENVWLREELEETQRRLRASEESVAQLEEEKRHLEFLGQLRQYDPPAESQQSESPPRRDSLASLFPSEEEERKGPEAAGAAAAQQGGYEIPARLRTLHNLVIQYAGQGRYEVAVPLCRQALEDLERSSGHCHPDVATMLNILALVYRDQNKYKEATDLLHDALQIREQTLGPEHPAVAATLNNLAVLYGKRGRYREAEPLCQRALEIREKVLGADHPDVAKQLNNLALLCQNQGKFEDVERHYARALSIYEALGGPHDPNVAKTKNNLASAYLKQNKYQQAEELYKEILHKEDLPAPLGAPNTGTAGDAEQALRRSSSLSKIRESIRRGSEKLVSRLRGEAAAGAAGMKRAMSLNTLNVDAPRAPGTQFPSWHLDKAPRTLSASTQDLSPH
B3: LENG1: human host interactor protein, Gene ID 79165, expressed from transfected ORF vector (protein)
chain: MNILPKKSWHVRNKDNVARVRRDEAQAREEEKERERRVLLAQQEARTEFLRKKARHQNSLPELEAAEAGAPGSGPVDLFRELLEEGKGVIRGNKEYKEEKRQEKERQEKALGILTYLGQSAAEAQTQPPWYQLPPGRGGPPPGPAPDEKIKSRLDPLREMQKHLGKKRQHGGDEGSRSRKEKEGSEKQRPKEPPSLDQLRAERLRREAAERSRAEALLARVQGRALQEGQPEEDETDDRRRRYNSQFNPQLARRPRQQDPHLTH

System: HTLV-1 LTR promoter transactivation by HTLV-1 Tax
Assay: Transactivation assay, HTLV-1 LTR luciferase reporter with HTLV-1 Tax
Assay type: cell-based
Settings: HEK293 cells co-transfected with pHTLV1LTR-Luc, HTLV-1 Tax and the human ORF; relative luciferase activity 24 h post-transfection; positive if >=2 or <=0.5 and p<0.05
Description: Twenty-four hours post-transfection, cells were washed three times with PBS, lysed and luciferase activities determined from two independent transfection experiments in triplicate. We computed a paired t-test to assess the difference of the means between samples with and without the human interactor. For a trial to be considered positive, the relative luciferase activities has to be >=2 or <=0.5, and the p-value of the t-test<0.05.
Expression vectors encoding human ORFs and HIV-1 Tat or HTLV-1 Tax proteins were tested in a transactivation reporter assay against reporter plasmids harboring HIV-1 or HTLV-1 viral promoter sequences cloned upstream of the luciferase reporter gene. […] Wherever not expressly specified, constructs used herein were generally made by sub-cloning entry clones from the ORFeome V3.1 into suitable destination vectors.

Row | Molecule | HTLV_LTR transactiv. [fold change]
1 | B1 | 0.37
2 | B2 | 0.31
3 | B3 | 0.34
